Measurements from article PMC4265565 (Protein expression and purification, 2012).

Biological target: XPB–p62–p44–p34 sub-complex (human, UniProt P19447 1-782; P32780 1-548; Q13888 1-395; Q13889 1-308)
Test: SEC

Sequence of XPB–p62–p44–p34 sub-complex (P19447 whole entry, chain 1 of 4): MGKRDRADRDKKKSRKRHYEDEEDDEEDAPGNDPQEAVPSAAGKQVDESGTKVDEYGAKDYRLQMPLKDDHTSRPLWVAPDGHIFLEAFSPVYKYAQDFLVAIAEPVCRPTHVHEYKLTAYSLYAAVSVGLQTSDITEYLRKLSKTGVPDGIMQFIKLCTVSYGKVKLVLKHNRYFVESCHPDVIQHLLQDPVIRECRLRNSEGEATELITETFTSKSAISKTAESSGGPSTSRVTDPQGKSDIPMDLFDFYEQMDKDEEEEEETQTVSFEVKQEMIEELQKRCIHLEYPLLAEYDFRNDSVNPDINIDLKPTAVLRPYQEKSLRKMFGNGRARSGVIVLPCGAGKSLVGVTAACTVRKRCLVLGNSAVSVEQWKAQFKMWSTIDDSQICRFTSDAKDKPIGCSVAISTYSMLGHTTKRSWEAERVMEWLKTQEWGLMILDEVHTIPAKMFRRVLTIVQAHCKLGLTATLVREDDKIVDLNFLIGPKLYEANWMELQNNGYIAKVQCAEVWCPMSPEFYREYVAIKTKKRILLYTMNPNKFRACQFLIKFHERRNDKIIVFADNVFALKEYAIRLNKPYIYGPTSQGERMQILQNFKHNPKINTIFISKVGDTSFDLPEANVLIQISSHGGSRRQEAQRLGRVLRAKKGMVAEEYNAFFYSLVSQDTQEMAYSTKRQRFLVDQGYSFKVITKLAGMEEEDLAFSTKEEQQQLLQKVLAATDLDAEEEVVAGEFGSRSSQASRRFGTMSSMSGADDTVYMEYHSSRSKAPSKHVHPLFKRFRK
Sequence of XPB–p62–p44–p34 sub-complex (P32780 whole entry, chain 2 of 4): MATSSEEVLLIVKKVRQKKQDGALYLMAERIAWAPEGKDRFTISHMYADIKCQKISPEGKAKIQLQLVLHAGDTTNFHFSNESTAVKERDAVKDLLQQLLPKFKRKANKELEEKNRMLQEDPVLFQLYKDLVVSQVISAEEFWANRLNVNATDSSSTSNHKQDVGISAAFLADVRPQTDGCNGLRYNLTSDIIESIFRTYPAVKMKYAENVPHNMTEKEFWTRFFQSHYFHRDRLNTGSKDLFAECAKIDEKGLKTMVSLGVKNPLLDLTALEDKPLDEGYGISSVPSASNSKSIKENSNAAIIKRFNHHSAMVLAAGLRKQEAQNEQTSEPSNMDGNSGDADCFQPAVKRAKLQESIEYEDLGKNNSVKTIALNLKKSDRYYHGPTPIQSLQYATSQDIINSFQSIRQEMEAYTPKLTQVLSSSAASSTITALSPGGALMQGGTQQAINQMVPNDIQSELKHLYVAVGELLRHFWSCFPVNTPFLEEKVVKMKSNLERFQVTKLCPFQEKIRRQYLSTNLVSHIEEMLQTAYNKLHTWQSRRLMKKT
Sequence of XPB–p62–p44–p34 sub-complex (Q13888 whole entry, chain 3 of 4): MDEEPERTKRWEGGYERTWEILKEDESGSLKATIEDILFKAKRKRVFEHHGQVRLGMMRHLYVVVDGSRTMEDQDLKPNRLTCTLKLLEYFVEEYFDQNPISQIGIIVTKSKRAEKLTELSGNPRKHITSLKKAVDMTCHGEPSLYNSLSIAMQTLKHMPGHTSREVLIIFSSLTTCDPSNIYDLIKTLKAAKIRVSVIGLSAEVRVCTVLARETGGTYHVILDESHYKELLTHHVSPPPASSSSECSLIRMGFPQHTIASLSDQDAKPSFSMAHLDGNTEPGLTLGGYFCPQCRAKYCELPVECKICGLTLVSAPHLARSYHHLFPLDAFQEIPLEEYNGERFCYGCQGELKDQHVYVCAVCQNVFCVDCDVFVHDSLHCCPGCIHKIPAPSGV
Sequence of XPB–p62–p44–p34 sub-complex (Q13889 whole entry, chain 4 of 4): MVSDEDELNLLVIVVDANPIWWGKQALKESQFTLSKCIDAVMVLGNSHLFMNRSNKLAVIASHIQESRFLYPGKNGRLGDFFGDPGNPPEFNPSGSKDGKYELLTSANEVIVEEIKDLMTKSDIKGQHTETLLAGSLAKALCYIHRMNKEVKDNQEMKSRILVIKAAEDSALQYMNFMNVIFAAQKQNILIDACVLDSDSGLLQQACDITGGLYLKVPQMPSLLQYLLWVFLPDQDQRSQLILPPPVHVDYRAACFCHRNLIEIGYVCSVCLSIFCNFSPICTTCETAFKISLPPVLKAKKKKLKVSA

- binding result: binds
B1: GST–p8 (natural protein, human, UniProt Q6ZYL4 1-71, looked up)
chain: MVNVLKGVLIECDPAMKQFLLYLDESNALGKKFIIQDIDDTHVFVIAELVNVLQERVGELMDQNAFSLTQK
